Among the data in paper PMC5503242 are stoichiometry N values, retold here.

For assay [1], the target named is ClC-ec1, E. coli ClC protein (E. coli) (UniProt P37019). Put plainly: SEC; purified ClC-ec1, apparent mass around 150 kDa with associated detergent. For orientation: In gel filtration, larger molecules generally elute earlier.
Assay [2] deals with ClC-rm1, ClC protein of Ralstonia metallidurans (WP_011515329), with C-terminal 6x(His) tag (Ralstonia metallidurans). Nature of the assay: SDS-PAGE (dimer resistant to denaturation); NUPAGE 4-12% Bis-Tris gel of ClC-rm1 eluted from Ni2+ resin or after SEC; Western blot with His tag antibody. For orientation: In western blotting, separated proteins are transferred to a membrane and probed.

Assay [3] shares this target. Put plainly: SEC; Superose 6 or Superdex 200, 0.03% (w/v) DDM, 150 mM NaCl, 5 mM KCl, 20 mM Tris-HCl pH 8.0; also after exchange to DM, OG or amphipol A8-35.
In assay [4] the target is ClC-rm1_eGFP, ClC-rm1 with eGFP and a 10x(His) tag at the C-terminus (Ralstonia metallidurans). The description is as above.

Broadly, the stoichiometry N is the number of molecules, sites or subunits per partner or assembly. Consider “ClC-ec1, E. coli ClC protein (from UniProt P37019 1-473) (natural protein)”, for which the stoichiometry N in assay [1] was found to be 2.

For the substance “ClC-rm1, ClC protein of Ralstonia metallidurans (WP_011515329), with C-terminal 6x(His) tag (natural protein)”, the stoichiometry N in assay [2] and in assay [3] was 2 in each case.

Regarding “ClC-rm1_eGFP, ClC-rm1 with eGFP and a 10x(His) tag at the C-terminus (natural protein)”, the stoichiometry N in assay [4] worked out at 2.
